The results in this text go back to patent US20090299035A1.

One may read the Kd as the free concentration of one partner at which half of the binding sites on the other are occupied at equilibrium, for simple one-to-one binding. What is called koff is the rate constant with which the complex falls apart. By kon is commonly meant the rate constant with which the complex forms. Higher therefore signals fast association.

In test [1] the target is Human IgG (Sigma-Aldrich Corporation) (human). Description: Biacore SPR; protein on NTA chip, human IgG injected. In general terms: In SPR one partner is held on a chip, and binding of the other changes the refractive index at the surface.
For test [2] the target is unchanged. Description: Biacore SPR; protein on NTA chip, human IgG injected; reference repeated from Table 3.
Test [3] shares this target. The test is described as follows: human IgG captured on the protein-immobilized Amino-Cellulofine carrier, released with 0.1 M acetic acid, A280.
The target is the same in test [4]. The test is described as follows: Biacore SPR; protein on NTA chip, human IgG injected; reference repeated from Table 2.

B1: pPL (SEQ ID NO: 3) (designed binder)
chain: ATIRANLIYADGRTQTAEFRGTFEEATAEAYRYADLLARENGRYTVDVADRGYTLNIRFAGGGGGCADDDDDDHHHHHH
Turning to B1, in test [1], the Kd was found to be 2.06 nM, the koff stood at 0.000312 s⁻¹ and the kon was determined as 151000 M⁻¹ s⁻¹. In test [2], this molecule came in with a Kd of 2.06 nM, a koff of 0.000312 s⁻¹ and a kon of 151000 M⁻¹ s⁻¹.

B2: Protein expressed from pGG3T (SEQ ID NO: 25 repeated three times, n = 3) (designed binder)
chain: AYRLILNGRTLRGETTTEAVDAATAERVFRQYANDNGVDGEWTYDDATRTFTVTERPEVIDASELTPAVTPGAYRLILNGRTLRGETTTEAVDAATAERVFRQYANDNGVDGEWTYDDATRTFTVTERPEVIDASELTPAVTPGAYRLILNGRTLRGETTTEAVDAATAERVFRQYANDNGVDGEWTYDDATRTFTVTERPEVIDASELTPAVTPGGGGGCADDDDDDHHHHHH
As for B2, in test [1], the Kd amounted to 0.068 nM, the koff stood at 7.63e-05 s⁻¹ and the kon stood at 1.12e+06 M⁻¹ s⁻¹.

B3: Immobilization carrier SEQ ID NO: 6 (←SEQ ID NO: 3) (designed binder)
chain: ATIRANLIYADGRTQTAEFRGTFEEATAEAYRYADLLARENGRYTVDVADRGYTLNIRFAGGGGG
modifications: carboxy terminus bound to a primary amino group on Amino-Cellulofine via an amide bond
As to B3, the Amount of bound human IgG (mg/ml carrier) in test [3] turned out to be 3.

B4: Immobilization carrier SEQ ID NO: 5 (←SEQ ID NO: 2) (designed binder)
chain: AYRLILNGRTLRGETTTEAVDAATAERVFRQYANDNGVDGEWTYDDATRTFTVTERPEVIDASELTPAVTGGGG
modifications: carboxy terminus bound to a primary amino group on Amino-Cellulofine via an amide bond
B4: the Amount of bound human IgG (mg/ml carrier) in test [3] was found to be 10.

B5: pPG (SEQ ID NO: 2) (designed binder)
chain: AYRLILNGRTLRGETTTEAVDAATAERVFRQYANDNGVDGEWTYDDATRTFTVTERPEVIDASELTPAVTGGGGCADDDDDDHHHHHH
For the molecule B5, in test [4], the equilibrium dissociation constant (Kd) was 0.384 nM, the koff is 0.000154 s⁻¹ and the kon was 401000 M⁻¹ s⁻¹. In test [1], this molecule gave a Kd of 0.384 nM, a koff of 0.000154 s⁻¹ and a kon of 401000 M⁻¹ s⁻¹.

B6: Protein expressed from pLL3T (SEQ ID NO: 26 repeated three times, n = 3) (designed binder)
chain: ATIRANLIYADGRTQTAEFRGTFEEATAEAYRYADLLARENGRYTVDVADRGYTLNIRFAPGATIRANLIYADGRTQTAEFRGTFEEATAEAYRYADLLARENGRYTVDVADRGYTLNIRFAPGATIRANLIYADGRTQTAEFRGTFEEATAEAYRYADLLARENGRYTVDVADRGYTLNIRFAPGGGGGCADDDDDDHHHHHH
In test [1], B6 gave a Kd of 0.788 nM, an off-rate (koff) of 0.000237 s⁻¹ and a kon of 301000 M⁻¹ s⁻¹.
